This test deals with recombinant type 1 inositol 1,4,5-trisphosphate receptor, N-terminally tagged with ECFP (rat) (UniProt P29994). The test can be described thus: SEC; Calibrated Superose 6 10/300 GL gel filtration, the final purification step; 50 mM Tris/HCl, 150 mM NaCl, 1 mM EDTA, 1 mM dithiothreitol, 5% glycerol, 0.02% DDM, pH 8.3; 4 °C; oligomeric size of the purified receptor. (SEC sorts molecules by how far they enter the pores of the column.)

In the case of “recombinant type 1 inositol 1,4,5-trisphosphate receptor, N-terminally tagged with ECFP (from UniProt P29994 1-2750)”, the stoichiometry N is 4.

By stoichiometry N is commonly meant a count of units in the complex or per binding partner.
